{
  "source": "patent US20070041992A1",
  "molecular_target": "low density lipoprotein receptor-related protein (LRP-1) on rat liver cells (rat) (UniProt G3V928)",
  "sequence (G3V928 20-4545)": "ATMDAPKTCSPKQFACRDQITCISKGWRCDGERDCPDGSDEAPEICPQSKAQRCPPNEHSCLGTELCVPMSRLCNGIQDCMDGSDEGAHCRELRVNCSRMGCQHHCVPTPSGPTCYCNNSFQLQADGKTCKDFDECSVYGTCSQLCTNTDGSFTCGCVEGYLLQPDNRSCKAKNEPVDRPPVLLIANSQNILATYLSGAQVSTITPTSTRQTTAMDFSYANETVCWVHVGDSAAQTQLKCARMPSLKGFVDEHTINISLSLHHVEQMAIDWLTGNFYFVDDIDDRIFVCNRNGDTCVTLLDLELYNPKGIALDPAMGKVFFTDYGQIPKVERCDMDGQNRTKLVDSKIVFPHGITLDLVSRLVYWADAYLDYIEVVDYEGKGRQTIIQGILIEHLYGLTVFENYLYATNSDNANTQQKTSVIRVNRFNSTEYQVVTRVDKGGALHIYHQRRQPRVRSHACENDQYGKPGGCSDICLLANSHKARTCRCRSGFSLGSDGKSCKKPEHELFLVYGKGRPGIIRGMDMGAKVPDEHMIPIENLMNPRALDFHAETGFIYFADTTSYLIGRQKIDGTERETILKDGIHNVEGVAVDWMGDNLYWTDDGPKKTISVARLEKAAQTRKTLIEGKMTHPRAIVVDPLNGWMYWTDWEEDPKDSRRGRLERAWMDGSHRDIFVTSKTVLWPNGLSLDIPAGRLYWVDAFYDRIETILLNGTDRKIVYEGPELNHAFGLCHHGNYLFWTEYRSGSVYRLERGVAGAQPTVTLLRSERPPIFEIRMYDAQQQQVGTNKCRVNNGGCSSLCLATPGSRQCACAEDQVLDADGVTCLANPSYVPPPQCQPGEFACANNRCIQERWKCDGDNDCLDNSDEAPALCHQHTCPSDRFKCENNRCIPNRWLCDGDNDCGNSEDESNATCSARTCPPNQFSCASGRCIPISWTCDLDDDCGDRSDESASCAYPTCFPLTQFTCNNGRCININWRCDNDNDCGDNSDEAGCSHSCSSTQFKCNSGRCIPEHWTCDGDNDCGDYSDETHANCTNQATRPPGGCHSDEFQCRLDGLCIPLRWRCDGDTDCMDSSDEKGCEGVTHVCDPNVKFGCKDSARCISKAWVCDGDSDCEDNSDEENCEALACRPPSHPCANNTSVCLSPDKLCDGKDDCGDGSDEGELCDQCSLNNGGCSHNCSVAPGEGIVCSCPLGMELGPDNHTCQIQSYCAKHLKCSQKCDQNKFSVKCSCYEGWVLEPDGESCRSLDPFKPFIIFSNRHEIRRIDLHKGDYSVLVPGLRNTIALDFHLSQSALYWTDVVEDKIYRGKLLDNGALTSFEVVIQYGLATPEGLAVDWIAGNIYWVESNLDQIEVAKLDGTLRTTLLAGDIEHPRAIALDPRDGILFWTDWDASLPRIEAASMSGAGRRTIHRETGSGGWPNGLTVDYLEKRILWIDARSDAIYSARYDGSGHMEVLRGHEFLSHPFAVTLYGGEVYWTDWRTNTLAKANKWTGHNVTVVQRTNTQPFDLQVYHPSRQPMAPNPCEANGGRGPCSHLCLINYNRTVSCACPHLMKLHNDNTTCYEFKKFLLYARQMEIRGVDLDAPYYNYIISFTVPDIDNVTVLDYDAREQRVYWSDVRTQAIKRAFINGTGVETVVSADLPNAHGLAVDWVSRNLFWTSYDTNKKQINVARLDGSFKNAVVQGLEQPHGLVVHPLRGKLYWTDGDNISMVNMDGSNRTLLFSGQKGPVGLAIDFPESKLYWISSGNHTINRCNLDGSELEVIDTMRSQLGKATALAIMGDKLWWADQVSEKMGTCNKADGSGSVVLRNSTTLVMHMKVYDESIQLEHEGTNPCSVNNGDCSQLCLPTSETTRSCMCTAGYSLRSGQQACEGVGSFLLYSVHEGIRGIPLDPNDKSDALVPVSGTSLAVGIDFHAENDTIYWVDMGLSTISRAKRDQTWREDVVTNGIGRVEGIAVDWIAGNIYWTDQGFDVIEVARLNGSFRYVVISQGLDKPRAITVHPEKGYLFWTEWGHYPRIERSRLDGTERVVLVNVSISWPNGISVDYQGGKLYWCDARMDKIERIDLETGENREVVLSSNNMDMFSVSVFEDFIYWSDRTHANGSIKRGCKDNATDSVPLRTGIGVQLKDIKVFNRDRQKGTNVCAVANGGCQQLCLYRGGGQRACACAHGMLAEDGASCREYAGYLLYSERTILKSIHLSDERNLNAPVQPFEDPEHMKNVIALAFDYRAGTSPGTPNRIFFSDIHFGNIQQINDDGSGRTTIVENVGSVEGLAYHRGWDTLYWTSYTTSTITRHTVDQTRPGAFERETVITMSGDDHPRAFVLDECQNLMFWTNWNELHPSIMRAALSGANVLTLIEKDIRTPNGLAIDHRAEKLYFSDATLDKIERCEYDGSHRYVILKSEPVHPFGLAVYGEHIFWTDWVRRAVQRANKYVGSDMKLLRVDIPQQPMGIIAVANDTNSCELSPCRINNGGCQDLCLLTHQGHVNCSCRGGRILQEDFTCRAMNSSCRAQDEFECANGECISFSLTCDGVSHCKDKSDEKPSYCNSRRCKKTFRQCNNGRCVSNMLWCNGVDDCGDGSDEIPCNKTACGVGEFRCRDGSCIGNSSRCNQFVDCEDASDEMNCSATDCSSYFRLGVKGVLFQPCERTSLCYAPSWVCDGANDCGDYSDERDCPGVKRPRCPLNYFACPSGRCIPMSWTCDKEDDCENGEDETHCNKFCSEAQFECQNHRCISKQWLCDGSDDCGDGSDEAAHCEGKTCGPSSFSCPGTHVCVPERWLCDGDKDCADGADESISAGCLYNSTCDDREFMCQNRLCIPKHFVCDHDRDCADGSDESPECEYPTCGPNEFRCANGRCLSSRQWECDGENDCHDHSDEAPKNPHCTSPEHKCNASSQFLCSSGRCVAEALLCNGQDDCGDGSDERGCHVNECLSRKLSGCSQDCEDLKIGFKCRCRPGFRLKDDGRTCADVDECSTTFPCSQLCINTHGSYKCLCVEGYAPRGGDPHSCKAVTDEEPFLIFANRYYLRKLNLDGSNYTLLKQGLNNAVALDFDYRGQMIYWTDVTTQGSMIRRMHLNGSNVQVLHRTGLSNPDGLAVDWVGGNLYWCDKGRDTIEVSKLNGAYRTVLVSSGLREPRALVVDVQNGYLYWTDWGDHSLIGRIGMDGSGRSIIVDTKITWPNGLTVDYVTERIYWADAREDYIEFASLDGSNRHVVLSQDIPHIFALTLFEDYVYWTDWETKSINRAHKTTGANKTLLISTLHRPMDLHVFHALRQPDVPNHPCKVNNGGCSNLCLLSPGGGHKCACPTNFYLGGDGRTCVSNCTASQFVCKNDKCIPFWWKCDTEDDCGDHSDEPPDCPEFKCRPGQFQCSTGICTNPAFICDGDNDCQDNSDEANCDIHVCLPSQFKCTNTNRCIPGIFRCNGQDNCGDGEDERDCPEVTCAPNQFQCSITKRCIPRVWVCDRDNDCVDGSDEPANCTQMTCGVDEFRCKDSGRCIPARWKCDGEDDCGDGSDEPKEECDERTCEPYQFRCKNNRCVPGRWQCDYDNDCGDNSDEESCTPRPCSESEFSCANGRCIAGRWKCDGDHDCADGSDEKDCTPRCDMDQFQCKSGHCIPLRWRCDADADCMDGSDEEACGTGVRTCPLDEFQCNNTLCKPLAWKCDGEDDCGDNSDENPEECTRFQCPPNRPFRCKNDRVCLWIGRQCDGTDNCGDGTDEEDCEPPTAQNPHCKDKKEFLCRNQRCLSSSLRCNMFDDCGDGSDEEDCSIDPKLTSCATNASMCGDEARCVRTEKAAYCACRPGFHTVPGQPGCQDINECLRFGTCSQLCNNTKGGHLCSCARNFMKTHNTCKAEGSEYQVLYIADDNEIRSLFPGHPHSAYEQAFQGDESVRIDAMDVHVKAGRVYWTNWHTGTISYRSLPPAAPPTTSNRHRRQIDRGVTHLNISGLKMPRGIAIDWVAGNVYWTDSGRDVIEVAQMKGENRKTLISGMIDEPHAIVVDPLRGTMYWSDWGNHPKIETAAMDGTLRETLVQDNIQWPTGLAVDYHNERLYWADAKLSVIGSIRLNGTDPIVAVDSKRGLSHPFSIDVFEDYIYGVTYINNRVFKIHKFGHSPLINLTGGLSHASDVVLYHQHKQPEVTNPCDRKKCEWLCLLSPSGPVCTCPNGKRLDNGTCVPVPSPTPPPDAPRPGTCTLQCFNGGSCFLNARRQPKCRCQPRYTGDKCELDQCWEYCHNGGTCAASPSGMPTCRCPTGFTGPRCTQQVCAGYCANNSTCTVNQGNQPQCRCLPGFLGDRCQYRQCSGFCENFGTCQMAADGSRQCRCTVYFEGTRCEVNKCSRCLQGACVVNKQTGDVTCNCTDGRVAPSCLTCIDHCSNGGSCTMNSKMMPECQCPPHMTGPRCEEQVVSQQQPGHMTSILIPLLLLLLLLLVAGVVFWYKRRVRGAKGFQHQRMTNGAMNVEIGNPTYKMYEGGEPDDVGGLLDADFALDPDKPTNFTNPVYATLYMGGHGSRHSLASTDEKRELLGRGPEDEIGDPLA",
  "assay": "cell-based or functional assay",
  "data": [
    {"substance": "P. falciparum CS protein CS27IVC-His6 (AA 27-123[NANPNVDP]3[NANP]21300-411) (from UniProt P05691 27-123) (ligand)", "values": [
      {"measurement": "elevation of the cAMP level in Kupffer cells", "value": 3, "unit": "fold"}
    ]}
  ]
}
